From the nanobody polyreactivity screen of Harvey et al. (2022)

Experiment: yeast display, Sf9 membrane polyspecificity reagent, FACS + sequencing; frameworks hold sequencing errors
Summary of the method: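 Galactose induction of a Saccharomyces cerevisiae BJ5465 synthetic nanobody display library ran 36–48 hours. The cells were then stained for 1 hour at 4 °C with 10% biotinylated, detergent-solubilized Sf9 membrane reagent, pulled down on streptavidin microbeads and FACS-sorted into low and high (top ~1%) gates on expression and reagent-binding fluorescence. Labels for polyreactivity follow the gate of origin.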

Sequence	polyreactivity (PSR sort gate)
QVQLVESGGGLVQAGGSLRLSCAASGRTFAHYAMGWYRQAPGKERELVAVITSGGITYYADSVKGRFTISRDNAKNTVYLQMNSLKPEDTAVYYCNVYSYYYSYGSPYDYWGQGTQVTVSS	high polyreactivity
QVQLVESGGGLVQAGGSLRLSCAASGSTFDDYAMGWYRPAPGKERELVAAISSDGSTNYADSVKGRFTISRDNAKNTVYLQMNSLKPEDTAVYYCAAESPWDWGYWFEALYDYWGQGTQVNVSS	high polyreactivity
QVQLVESGGRLVQAGGSLRLSCAASGITIRWYAKGWYRQAPGKERELVSRIDGRGASTYADSVKGRFTSSRDNAKNTVYLQMNRLKPEDTAVYYCAVAQVRVSYLWVRKFYYWGQGTQVTVSS	high polyreactivity
QVQLVESGGGLVQAGGSLRLSCAASGFTFKYYAMGWYRQAPGKERELVAAINRSGGSTHYADSVKGRFTISRDIAKNTVYLQINSLKPEDTAVYYCAATGRRRTYSEYEYWGQGTQVTVSS	high polyreactivity
QVQLEESGGGLVQAGGSHRLSCAASGQIFRHYAMGWYRQAPGKEREFVAAITGSGGNTYYADSLKGRFTISRDNAKNTVYLQMNSLKPEDTAVYYCAVRAYPSYPRGVYAYYYWGQGTQVTVSS	high polyreactivity
QVQLVESGGGLVQAGGSLRLSCAASGFIFRPYAMGWYRQAPGKERELVAAISFSGGSTYYADSVKGRFTISRDNAKNTVYLQMNSLIPEDTAVYYCAAVYYFSYWLGPDDYWGQGTQVTVSS	low polyreactivity
QVQLVESGGGLVQAGGSLRLSCAASGRIFWPNAMGWYLQAPGKESEFVAAIRWSSDRTYYADSVKGRFTISRDNAKNTVYLQMNSLKPEYTAVYYCNAVRYVISKYDYWGHGTQVTVSS	high polyreactivity
QVQLVESGGGLVQAGGSLRLSCAASGSISGYYAMGWYRQAPGKERDLVASIRYTGARTYYADSVKGRFTISRDNAKNTVYVQMNSLKPEDTAVYYCAADVKRERVWGGDYWGLGTQVTVSS	low polyreactivity
QVQLQESGGRLVQAGGSLRMSCAASGTIFSEANMGWYRQAPGKERELVATIGQGSTTNYADSVKGLFTISRDNAKNTVYLQMNSLKPEETAVYYCAVVTVDPVGFVYWGQGTQVTVSS	low polyreactivity
QVQLVESGGGLVQAGGSLRLSCAASGRTFGVNAMGWYRQAPGKERELVATIRRGGSTYYADSVKGRFTISRDNAKNTVYLQMNSLKPEDTAVYYCNASHVTWNRKYDYWGQGTQVNVSS	low polyreactivity
QVQLVESGGGLVQAGGSLRLSCAASGRILKRYAMGWYRQAPGKERELVAAINWNGGSTYYADSVKGRFTISRDNAKNTVYLQMNSLKPEDTAVYYCAAYYGTPRGFDYWGQGTQVTVSS	high polyreactivity
QVQLVESGGGLVQAGGSLRLSCAASGRTFRPYAMGWYRQAPGKERDLVAAIDSSGTSTYYADSVKGRFTISRDNAKKTVYLKMNSLKPEDTAVYYCAKAWPDHWYSRYDYWGQGTQVTVSS	low polyreactivity
QVQLVESGGGLVQAGGSLRLSCAASGSILVYYAMGWYRQAPGKEREFVAAITRSGGSTYYADSVKGRFTISRDNAKNTVYLQMNSLKPEDTAVYYCNARDVVWKRFTRYDFWGQGTQVTVSS	high polyreactivity
QVQLVESGGGLVQAGGSLRLSCAASGLTLPWYAMGWYRQAPGKERELVAAITWDGTRTYYADSVKGRFTISRDNAKNTVYLQMNSLKPEDTAVFYCNARRVRGTFYRSGVVGYSYWGHGTQVTVSS	high polyreactivity
QVQLVESGGGLVQAGGSLRLSCAASGITFVYYAMGWYRQAPGKERELVAGIDWSGGSTYYADSVKGRFTISRDNAKNTVYLQMNSLKPEDTAVYYCAAEFWLSTDFYYWGQGTQVTVSS	high polyreactivity
QVQLVESGGGLVQAGGSLRLSCAASGFIFFRYAMGWYRQAPGKERELVAAISTRTGITYYSDSVKGRFTISRDNAKNNVYLQMNRLKPEDTAVYDRNVLRSHSLYPFWKYDYWGQGTQVTVSS	high polyreactivity
QVQLVESGGGLVQAGGSLRLSCAASGITFSYYAMGWYRQAPGKEREFVAAISWSGGSTYYADSVKGRFTISRDNAKNTVYLQMNSLKPEDTAVYYCAADRYPYGLDYWGQGTQVTVSS	high polyreactivity
QVQLVESGGGLVQAGGSLRLSCAASGSIFTGYAMGWYRQAPGKERELVAAIRTRGGSTYYADSVKGRFTISRDNAKNTVYLQMNSLKPEDTAVYYCAKRYYGWYGNFDYWGQGTLVTVSS	high polyreactivity
QVQLVESGGGLVQAGGSLRLSCAASGRTFGYYAMGWYRQAPGKERELVAAISGNGDNTYYADSVKGRFTISRDNAKNTVYLQMNCLIPEDTAVYYCSLWYRYKYAPYRLHGYWGQGTQVTVSS	high polyreactivity
QVQLVESGGGLVQAGGSLRLICAASGSTIFENVMGWYRQAPGKEREFVAAINTSGGSTYYADSVKGRFTISRDNAKNTVYLQMNILKPEDTAVYYCARDSYWEMDYWGQGTQVTVSS	low polyreactivity
QVQLVESGGGLVQAGVRLRLSCAASGFIFVVNAMGWYRPATRKEREFVAVISSSTGSTYYADSVKGRFTISRDNAKYTVYLPMNSLKPEDTAVYYCAAASRRRRPLKRMDYWGQGTQVTVSS	low polyreactivity
QVQLVESGGGLVQAGGSLRLSCAASGRIFSGYAMGWYRQAPGKERELVAAIYGGGSTNYADSVKGRFTISRDNAKNTVYLQMNSLKPEDTAVYYCATQYWHYPYWLYKYDYWGQGTQVTVSS	low polyreactivity

Sequence	polyreactivity (PSR sort gate)
QVQLVESGGGLVQAGGSLRLSCAASGLTFYYYVMGWYRQAPGKERELVAAISKSGGRTYYADSVKGRFTISRDNAKNTVYLQMNSLKPEDSAVYYCAAMYTPNYTAYDSWGQGTQVTVSS	high polyreactivity
QVQLVESGGRLVQAGGSLRLSCAASGSTFYPYAMGWYRQAPGKERELVAAINGNGGRTYYADSVKGRFTISRDNAKNTVYLQMNSLKPEDTAVYYCAVVRVAWGHRSDYWGQGTQVTVSS	high polyreactivity
QVHLVESAGGLVQAGGSLRLSCAPSGSTFPLYVMGWYRQAPGKERELVAAIDWSGGSTYYADSVKGRFTISRDNAKNTVYLQMNRLKPEDSAVYYCNARYLRRGDYWGQGTQVTVSS	low polyreactivity
QVQLVESGGGLLQAGGSLRLSCAASGIILYWNTMGWYRQAPGKERELVAAITWSVGRTYYADSVKGRFTISRDNAKNTVYLQMNSLKPEDTAVYYCNAGYDSYSRDYWGQGTQVTVSS	low polyreactivity
QVQLVESRGGLVQAGGSLRLRCAASGFIFGYNVMGWYRQAPGKERELVASISTGGRTYYADSVKGRFTISRDNAKNTVYLQMNSLKPEDTAVYYCAARYRSYSYLYYSWGQGTQVTVSS	high polyreactivity
QVQLVESGGGLVQAGGSLRLSCAASGSIFPFYAMGWYRQAPGKERELVAAISYSGGRTYYADSVKGRFTISRDNAKNTVYLQMNSLKPEDTAVYYCAVDSGQKRRDYWGQGTQVTVSS	high polyreactivity
QVQLVESGGGLVKAGGSLRLSCVASGLMFGYCAMGWYRQPPGTERELVAVISWSGTSRYYADSVKGRFTISRDNAKNTVYLQMNSLKPEDTAVYYCIADTYGYYLWTGAVSAGDDYWVQGTQVTVSS	low polyreactivity
QFQLVESGGGLVQAAGSLRLSCAASGSTFVSNAMGWYRQAPGKDRELVAAITRSGGSTRDADSVKGRLTISRDNAKNTGYLQMNSLKPEDTAVYYCAAPHKYYGLRYYYWGQGTQVTVSS	high polyreactivity
QVQLVESGGGLVQAGGSLRLSCAASGRIFDRYVMGWYRQAPGKERELVAAISQSGGGTYYADSVKGRFTISRDNAKNTVYLQMNSLNPEDTAVYYCAARGTGYHGYGYWGQGSQVTVSS	high polyreactivity
QVQLVKSGGGLVQAGGSLRLSCAASRFIIPEYTMGWYRQAPGKARELVAAISGSGGSTYYADSVKGRFTISRDNAKHTVYLQMNSLKPEDTAVYYCATAFIVPFPGSDYWGQGTQVTVSS	low polyreactivity
QVQLVESGGGLVQAGGSLRLRCAASGNIFGIYTMAWYRQAPGKESDFVAVISLSGTSTYYADSVKGRFTISRDNAKNTVYLQMNSLKPEDTAVYYCNARTPHNKGRRRAYDYWGQGTEVTVSS	high polyreactivity
QVQLLESGGGLVQAGGSLRLSCAASGRIFGRYAMGWYRQAPGKERELVAAISSGGRTNYADSVKGRFTISRDNAKNTVYLQMNSLKPEDTAVYYCAARAYTYQAQSNYWGQGTQVTVSS	high polyreactivity
QVQLVESGGGLVQAGGSLRLSCAASGSIFYWNAMGWYRQAPGKERELVAAISYNGGSTYYADSVKGRFTISRDNAKNTVYLQMNSLKPEDTAVYYCARLDSAAEPRQYDYWGQGTQVTVSS	high polyreactivity
QVQLVESGGGLVQAGGSLRLSCAASGSTFYYYAMGWYRQAPGKERELVASIRSRDGSTRYADSVKGRFTISRDNAKNTVYLQMNSLKPEDTAVYYCAAVGYRRVDAGSSASRYDYWGQGTQVTVSS	high polyreactivity
QVQLVESGGGLVQAGASLRLSCAASGSIFVLYGMGWYRQAPGKERELVAAISAGITNYADSVKGRFTISRDNAKNTVYLQMNSLKPEDTAVYYCATVDGAYQYTYDFWGQGTQVTVSS	low polyreactivity
QVQLVESGGGLVQAGGSLRLSCAASGRTFTVNAMGWSRQAPGKERELVAAISTSTGRTYYADSVKGRFTISRDNAKNTVYLQMNSLKPEDTAVYYCAAQSPYRGYYYTYYLYDYWGQGTQVTVSS	high polyreactivity
QVQLVESGGGLVQAGGSLRLSCAASGRTFERNAMGWYRQAPGKEREFVAAITEIGGSTYYADSVKGRFTISRDNAKNTVYLQMNSLKPEDTAVYYCAKDGTYSPYDYWGQGTQVTVSS	low polyreactivity
QVQLVESGGGLVQAGGSLRLSCAASGRTFYYNAMGWYRQAPGKEREFVAAISYGGTTTYYADSVKGRFTISRDNAKNTVYLQMNSLKPEDTAVYYCAAGYTWRQSWYPFDYWGQGSQVTVSS	high polyreactivity
QVHLQESGGGLVQAGGSLRMSCAASGTIFTEANMGWYRQAPGKERELVATIGLGSTTNYADSVKGRFTISRDNAKNTVYLQMNSLKPEETAVYYCAVVTVDPVGFVYWGQGSQVTVSS	low polyreactivity
QVQLVDSGGGLVQAGGSLRLSCPASGYTIVYNAMGCYRQGPGKEREFVAAITWSGTSTRYADSVKGRFTISRDKAKNTVYLQMNSLKPDDTAVYYCSARFPLVRYNYWGQGTQVTVSS	high polyreactivity
QVQLVESGGGLVQAGGSLRLSCAASGFIFWTYAMGWYRQAPGKERELVAAISSGGTITKYADSVKGRFTISRDNATNTVYLQMNSLKPEDTAVYYCNARENAVSLRDYWGQGTQVTVSS	high polyreactivity
